Here are results for one molecule from patent publication US20230079150A1, “METHODS FOR PREVENTION OR TREATMENT OF VIRUS-INDUCED ORGAN INJURY OR FAILURE WITH IL-22 DIMER” (priority 2020, published 2023).

Data set [1] is described as follows: LPS acute lung injury mouse model: human IL-22 ELISA in BAL. It counts as in vivo, mice. To be noted: high-dose LPS; F-652 4 μg tail vein; day 4; sham non-detectable. How it is done:
(§1) After approval from the Tulane University, Institutional Animal Care and Use Committee (protocol ID 607), equal numbers of male and female, 6-8 week old C57BL/6 mice (Charles River Laboratories, Cambridge, Mass.) were given acute lung injury (ALI) via intra-tracheally administered LPS. After obtaining appropriate depth of anesthesia using isoflurane, the high-dose LPS group (HDG) received 100 μg of LPS administered intra-tracheally. Approximately 30 minutes after LPS administration, 4 μg of F-652 was administered via tail vein injection (n=11), then compared to animals receiving sham injection (n=8) with phosphate-buffered saline (PBS). In the low-dose LPS group (LDG), 33.3 μg of LPS was administered intra-tracheally. F-652 was again administered at 30 minutes (n=9) and compared to sham injected animals (n=9). […]
The BAL fluid was then centrifuged at 500×gravity for 5 minutes. […] To quantify protein in the BAL supernatant, a Bradford protein assay (Bio-Rad Laboratories) was performed. Protein was quantified by measuring absorbance at 595 nm on a BMG Labtech FLUOstar Optima plate reader. […] Human IL-22 was measured using an IL-22 Human ELISA kit (ThermoFisher Scientific). Mouse IL-22 was measured using an IL-22 Mouse/Rat Quantikine ELISA kit (R&D Systems).
(In general: An ELISA detects its analyte on a solid surface through an enzyme-linked reagent.)

Data set [2] deals with C57BL/6 mice. Put plainly: LPS acute lung injury mouse model: endothelial glycocalyx intensity in alveolar capillaries. It counts as in vivo. How it is done: as §1
Paraformaldehyde-fixed lung segments were flash-frozen in Optimal Cutting Temperature (O.C.T) compound (Sakura) and sectioned on a cryostat. […] Glycocalyx and nuclei (4′,6-diamidino-2-phenylindole) were imaged on an Olympus BX51 fluorescence microscope under identical conditions. ImageJ software was used to quantify glycocalyx fluorescence intensity in the alveolar capillaries from a minimum of 20 regions of interest from 3 mice per condition.

The subject of data set [3] is Human umbilical vein endothelial cells (HUVEC). Put plainly: Glycocalyx quantification (WGA staining) in HUVECs with or without LPS. The format is cell-based. How it is done:
Human umbilical vein endothelial cells (HUVEC) were purchased from the American Type Culture Collection. Cells were initially grown in 2% gelatin-coated 10-cm plastic dishes using M200 medium supplemented with low serum growth supplement (LSGS) and penicillin/streptomycin in a cell culture incubator at 37° C. with 5% CO2 atmosphere. Cells were passaged by digestion in 0.25% trypsin in Hanks' Balanced Salt Solution (HBSS) after reaching 80% confluence. Cells were used for experiments between passages 1-3. For glycocalyx quantification, HUVECs were plated in 48-well plastic cell culture plates coated with 2% gelatin, at a confluence of approximately 80%. M200+LSGS+penicillin/streptomycin was supplemented with 1% bovine serum albumin (BSA) to support glycocalyx growth. Cells were cultured for 24 hours to allow glycocalyx development before LPS exposure.
After completion of the LPS exposure with or without F-652, HUVECs were fixed by addition of concentrated formaldehyde solution directly to the culture medium to yield a final formaldehyde concentration of 3.5%. […] Glycocalyx and nuclei (4′,6-diamidino-2-phenylindole) were imaged on an EVOS fluorescence microscope under identical conditions. […] ImageJ software was used to quantify glycocalyx fluorescence intensity overlaying the nuclei of each visible cell.

B1: F-652: recombinant IL-22 dimer consisting of two monomeric subunits each comprising a sequence shown in SEQ ID NO: 24 (protein)
chain 1: APISSHCRLDKSNFQQPYITNRTFMLAKEASLADNNTDVRLIGEKLFHGVSMSERCYLMKQVLNFTLEEVLFPQSDRFQPYMQEVVPFLARLSNRLSTCHIEGDDLHIQRNVQKLKDTVKKLGESGEIKAIGELDLLFMSLRNACIGSGGGSGGGGSGGGGSVECPPCPAPPVAGPSVFLFPPKPKDTLMISRTPEVTCVVVDVSHEDPEVQFNWYVDGVEVHNAKTKPREEQFNSTFRVVSVLTVVHQDWLNGKEYKCKVSNKGLPASIEKTISKTKGQPREPQVYTLPPSREEMTKNQVSLTCLVKGFYPSDIAVEWESNGQPENNYKTTPPMLDSDGSFFLYSKLTVDKSRWQQGNVFSCSVMHEALHNHYTQKSLSLSPGK
chain 2: APISSHCRLDKSNFQQPYITNRTFMLAKEASLADNNTDVRLIGEKLFHGVSMSERCYLMKQVLNFTLEEVLFPQSDRFQPYMQEVVPFLARLSNRLSTCHIEGDDLHIQRNVQKLKDTVKKLGESGEIKAIGELDLLFMSLRNACIGSGGGSGGGGSGGGGSVECPPCPAPPVAGPSVFLFPPKPKDTLMISRTPEVTCVVVDVSHEDPEVQFNWYVDGVEVHNAKTKPREEQFNSTFRVVSVLTVVHQDWLNGKEYKCKVSNKGLPASIEKTISKTKGQPREPQVYTLPPSREEMTKNQVSLTCLVKGFYPSDIAVEWESNGQPENNYKTTPPMLDSDGSFFLYSKLTVDKSRWQQGNVFSCSVMHEALHNHYTQKSLSLSPGK
modifications: homodimer
Turning to B1, the “human IL-22 level in BAL” value in data set [1] came out at 27.41 pg/mL. In addition, the “endothelial glycocalyx intensity, F-652 treated vs sham” value in data set [2] (high dose LPS injury) is reported as “no significant difference”. The “endothelial glycocalyx intensity in alveolar capillaries” value in data set [2] (low dose LPS injury, sham 63.7) was found to be 80.0 Arbitrary Units. Also, the glycocalyx staining intensity amounted to 5.08 AU in data set [3] (0.375 μg/mL F-652 alone, 24 hours, control 6.09); 5.86 AU in data set [3] (1 μg/mL LPS and 0.375 μg/mL F-652, 24 hours, control 6.09, LPS 5.10).
